{"source": "paper PMC9622860", "about": "“Structural and molecular determinants of Candida glabrata metacaspase maturation and activation by calcium” (Communications Biology, 2022)", "molecular_target": "T1, p20 domain of mature CgMCA-I (fragment between the cleavages after R54 and K263) (Candida glabrata, UniProt Q6FPX9 55-263)", "T1 construct": "Candida glabrata metacaspase CgMCA-I, p20 fragment left after cleavage after R54 and after K263; Residues seen in the maps: from after Gly68 (7QP1) or after Ser72 (7QP0) up to before Asn260; Limits are worked out from the cleavage sites found by mass spectrometry (R54, K263); The N-terminal His tag leaves with residues 1-54; source: E. coli T7 express, purified as CgMCA-I; cleaved by its own …", "T1 sequence (looked up)": "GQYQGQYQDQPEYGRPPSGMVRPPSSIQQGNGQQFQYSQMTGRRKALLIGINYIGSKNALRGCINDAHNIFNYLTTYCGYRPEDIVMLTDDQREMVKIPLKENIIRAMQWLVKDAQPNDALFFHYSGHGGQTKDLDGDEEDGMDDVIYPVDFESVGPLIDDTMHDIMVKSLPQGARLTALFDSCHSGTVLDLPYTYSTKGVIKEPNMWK", "experiment": "crystal structure; fully matured CgMCA-I with Ca2+ (7QP1, 3.0 A) and with Mg2+ (7QP0, 1.6 A); N-terminal part and p20-p10 linker cleaved off", "conditions": "both partners purified", "data": [{"binder": "p10 domain of mature CgMCA-I (fragment after the cleavage at R307) (domain or fragment, Candida glabrata, UniProt Q6FPX9 308-392, looked up, Candida glabrata metacaspase CgMCA-I, C-terminal p10 fragment left after cleavage after R307; Residues seen in the maps begin after Ile309; Limits are worked out from the cleavage site found by mass spectrometry (R307) and the stated length of 392 residues; also called p10 subunit; source: E. coli T7 express, purified as CgMCA-I; cleaved by its own maturation before or during crystallisation) QIKFSPADVIMLSGSKDNQTSADTFADGQNIGAMSHAFISVMTRQPQQSYLSLLQNLRNELAGKYSQKPQLSASHPIDVNLQFIM", "values": [{"measurement": "binding result", "result": "binds"}]}]}
